Experiment in all cases: pull-down binding Z-score (relative to library population); higher = stronger binding
Common to all, as to settings: RNA library: Library-2

In data set [1] the test system is TO-3-N3 (biotin conjugate). A digest of the protocol:
(§1)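 Heat-folded RNA library (1 μg, Cy5 or Cy3 end label, phosphate/NaCl/KCl buffer) was captured for 60 min at 25 °C on streptavidin beads displaying 100 pmol of biotin-conjugated small molecule, then washed three times. The bound fraction, eluted in hot SDS, was hybridised to a DNA barcode microarray at 55.5 °C for 20 h. Z-scores for binding were taken against the library mean and standard deviation after beads-only subtraction and trimmed averaging of replicate barcoded probes.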

The test system of data set [2] is TO-3-N3-2 (biotin conjugate). An outline of the steps: as §1
The subject of another data set is TO-N3 (biotin conjugate). A digest of the protocol:
as §1

Data set [3] relates to TO-N3-2 (biotin conjugate). An outline of the steps:
as §1

In the case of “GUUCUUGAGUGUAAUGUGAAAACUACCGAAGUUGUAGGAGACAUUAUACUUAAACCAGC”, the “pull-down binding Z-score” value in data set [1] is -0.133; in data set [2] it was 0.0674; with TO-N3 (biotin conjugate), 0.111; in data set [3] it was 0.162.
Turning to UCCUAAAGAGGA, the “pull-down binding Z-score” value in data set [1] is 1.2; in data set [2], -0.431; with TO-N3 (biotin conjugate) it was 0.703; in data set [3], -0.731.
Consider “GUGGUUAUACCUACUAAAAAGGCUGGUGGCACUACUGAAAUGCUAGCGAAAGCUUUGAGAAAAGUGCCAACAGACAAUUAUAUAACCAC”, for which the “pull-down binding Z-score” value in data set [1] is -0.608; in data set [2], 0.156; in the data set on TO-N3 (biotin conjugate), -0.353; in data set [3], 0.179.
In the case of “UAACAGUUACACCGGAAGCCAAUAUGGAUCAAGAAUCCUUUGGUGGUGCAUCGUGUUG”, the “pull-down binding Z-score” value was -0.833 in data set [1], -0.365 in data set [2], -0.9 with TO-N3 (biotin conjugate) and -0.452 in data set [3].
For GUUUCGGAAGAGAC, the “pull-down binding Z-score” value in data set [1] is -0.255; in data set [2], -0.443; in the data set on TO-N3 (biotin conjugate) it was -0.448; in data set [3] it was -0.706.
“GAACUCUACUAAUGUCACUAUUGCAACCUACUGUACUGGUUCUAUACCUUGUAGUGUUUGUCUUAGUGGUUUAGAUUC [DMSMaPseq_invitro_SARS-CoV-2_Motif_135]”: the “pull-down binding Z-score” value in data set [1] is 0.03; in data set [2], -0.164; with TO-N3 (biotin conjugate), -0.105; in data set [3], -0.471.
For the sequence GCCACGUAUAAACCAAAUACCUGGUGUAUACGUUGU, the “pull-down binding Z-score” value in data set [1] is 0.576; in data set [2] it was -0.377; with TO-N3 (biotin conjugate), 0.17; in data set [3], -0.78.
With CAGGUGACUUUGAUACUUACCUG [U1snRNP5ss-18], the “pull-down binding Z-score” value in data set [1] is -0.734; in data set [2] it was -0.615; in the data set with TO-N3 (biotin conjugate), -0.974; in data set [3], -0.978.
As to “UGCCGACUACUAUAGCAAAGAAUACUGUUAAGAGUGUCGGUA”, the “pull-down binding Z-score” value was -0.357 in data set [1], -0.206 in data set [2], -0.385 with TO-N3 (biotin conjugate) and -0.182 in data set [3].
Take UCAGCUGGUUUUCCAUUUAAUAAAUGGGGUAAGGCUAGA: the “pull-down binding Z-score” value in data set [1] was -0.104; in data set [2] it was -0.448; in the data set with TO-N3 (biotin conjugate), -0.355; in data set [3] it was -0.851.
The matching figures for “CCUGAAUCUUGG [IAV_invivo_PB1_2_Motif_21+IAV_invivo_PB1_2_Motif_21]”: -0.834, -0.491, -0.925 and -0.502.
In the case of “UGUUACUUUAUAUUGACAUUAAUGGCAAUCUUCAUCCAGAUUCUGCCACUCUUGUUAGUGACA”, the “pull-down binding Z-score” value in data set [1] is -0.354; in data set [2], -0.104; with TO-N3 (biotin conjugate), -0.585; in data set [3], -0.868.
“CUCUGGAACACUUUUACAAGACUUCAGAG [SHAPE_invivo_SARS-CoV-2_Motif_367]”: the “pull-down binding Z-score” value in data set [1] was -0.0115; in data set [2], -0.651; in the data set with TO-N3 (biotin conjugate) it was -0.338; in data set [3], -0.513.
As to CUACACUAGUGCCACAAGAGCACUAUGUUAG, the “pull-down binding Z-score” value in data set [1] is -0.402; in data set [2], -0.213; in the data set with TO-N3 (biotin conjugate) it was -0.127; in data set [3], 0.417.
On to “GGGAGAUAACAUUCC [IAV_invivo_M1_M2_7_Motif_7+IAV_invivo_M1_M2_7_Motif_7]”, for which the “pull-down binding Z-score” value in data set [1] was -0.149; in data set [2], -0.0296; in the data set with TO-N3 (biotin conjugate), -0.16; in data set [3] it was -0.107.
Consider “AACGGGGCGGGCCUCGGGCGGGGUAA [G4_2A2_VEGF-Pu22-mt3]”, for which the “pull-down binding Z-score” value turned out to be 8.63 in data set [1], 10.6 in data set [2], 6.92 in the data set with TO-N3 (biotin conjugate) and 5.08 in data set [3].
For “GCAAGUUGAAUCUGAUGAUUACAUAGCUACUAAUGGACCACUUAAAGUGGGUGGUAGUUGUGUUUUAAGCGGACACAAUCUUGC”, in that order: -0.696, -0.436, -0.805 and -0.558.
UGUCACAUCAAUCUGACA: the “pull-down binding Z-score” value in data set [1] is -0.221; in data set [2], -0.268; in the data set on TO-N3 (biotin conjugate) it was -0.416; in data set [3], -0.472.
For “GGUACGUUAAUAGUUAAUAGCGUACUUCUUUUUCUUGCUUUCGUGGUAUUCUUGCUAGUUACACUAGCCAUCCUUACUGCGCUUCGAUUGUGUGCGUACU”, the “pull-down binding Z-score” value is 0.654 in data set [1], -0.0614 in data set [2], 0.41 with TO-N3 (biotin conjugate) and -0.294 in data set [3].
For “GCCAUUUGUCAUGAUGGAAAAGCACACUUUCCUCGUGAAGGUGUCUUUGUUUCAAAUGGC”, in that order: -1.16, -0.592, -1.39 and -0.949.
The matching figures for “UAGGUGUUUUAAUGUCUAAUUUAGGCAUGCCUUCUUACUGUACUGGUUACAGAGAAGGCUAUUUGAACUCUA”: -0.861, -0.358, -0.806 and -0.982.
For GCGCUGCCAGAAACUGGCAGCGC [full-UA], in that order: -0.337, -0.274, -0.599 and -0.943.
As to GUGCUAAGCAC, the “pull-down binding Z-score” value in data set [1] is -0.151; in data set [2], -0.435; with TO-N3 (biotin conjugate), -0.59; in data set [3], -1.24.
For the sequence CUAAUAACACUAAAGGUUCAUUGCCUAUUAAUGUUAUAG, the “pull-down binding Z-score” value in data set [1] is 0.171; in data set [2] it was -0.0592; with TO-N3 (biotin conjugate) it was -0.0515; in data set [3], -0.904.
Take AAGGUAAGAGGGAUACUUACCUG [U1snRNP5ss-26]: the “pull-down binding Z-score” value in data set [1] was -0.614; in data set [2] it was -0.286; with TO-N3 (biotin conjugate), -0.673; in data set [3] it was -0.262.
“UGGUACUGAAGAUGAUUACCA [SHAPE_invitro_SARS-CoV-2_Motif_57]”: the “pull-down binding Z-score” value is -0.272 in data set [1], 0.306 in data set [2], -0.278 with TO-N3 (biotin conjugate) and 0.00913 in data set [3].
The matching figures for “CCAUGGCAGAUUCCAACGGUACUAUUACCGUUGAAGAGCUUAAAAAGCUCCUUGAACAAUGGAACCUAGUAAUAGGUUUCCUAUUCCUUACAUGG [DMSMaPseq_invitro_SARS-CoV-2_Multi_81_ComplexLevel_1]”: -0.195, -0.516, -0.621 and -0.419.
With GGAAUAAGUAUGAUACUUACCUG [U1snRNP5ss-6], the “pull-down binding Z-score” value came out at 1.69 in data set [1], 0.331 in data set [2], 1.81 with TO-N3 (biotin conjugate) and 1.18 in data set [3].
With “GGGCCACUGCCAGAAGACAAUGAACCAAGUGGUUAUGCCC [IAV_invivo_PB1_2_Motif_5+IAV_invivo_PB1_2_Motif_5]”, the “pull-down binding Z-score” value in data set [1] is -0.323; in data set [2], 0.0011; in the data set on TO-N3 (biotin conjugate), 0.0266; in data set [3], 0.713.
For CAGGCCACAAAUAGGCGUG, the “pull-down binding Z-score” value in data set [1] was -0.638; in data set [2] it was -0.502; in the data set with TO-N3 (biotin conjugate), -0.509; in data set [3], 0.278.
The matching figures for “GCAGCAAUAUGC [IAV_invivo_PA_3_Motif_2+IAV_invivo_PA_3_Motif_2]”: 0.588, -0.292, 0.548 and -0.111.
For GCGCUGCCAGAAACUGGCAAAGCGC [bulge-AA], in that order: -0.184, -0.00126, -0.403 and -0.0432.
In the case of “GGCCUGGGCCUGGGCCUGGGCCUGGGCCUGGGCCUG [r(GGCCUG)6]”, the “pull-down binding Z-score” value in data set [1] is 0.00804; in data set [2], -0.435; in the data set on TO-N3 (biotin conjugate), -0.184; in data set [3], 0.12.

Values taken from the supplement of paper PMC11865577.
